Results taken from article PMC5334639, “Nucleophosmin Interacts with PIN2/TERF1-interacting Telomerase Inhibitor 1 (PinX1) and Attenuates the PinX1 Inhibition on Telomerase Activity” (Scientific Reports, 2017).

T1: PIN2/TERF1-interacting telomerase inhibitor 1 (PinX1), purified wild type (UniProt Q96BK5 1-328)
T1 construct: PinX1, wild type, cloned into pGEX-6p-2; GST removed by PreScission protease; PinX1-C ends at aa328; also called purified PinX1; source: E. coli BL21(DE3)-pLysS, purified (Glutathione Sepharose, gel filtration)
T1 sequence (looked up): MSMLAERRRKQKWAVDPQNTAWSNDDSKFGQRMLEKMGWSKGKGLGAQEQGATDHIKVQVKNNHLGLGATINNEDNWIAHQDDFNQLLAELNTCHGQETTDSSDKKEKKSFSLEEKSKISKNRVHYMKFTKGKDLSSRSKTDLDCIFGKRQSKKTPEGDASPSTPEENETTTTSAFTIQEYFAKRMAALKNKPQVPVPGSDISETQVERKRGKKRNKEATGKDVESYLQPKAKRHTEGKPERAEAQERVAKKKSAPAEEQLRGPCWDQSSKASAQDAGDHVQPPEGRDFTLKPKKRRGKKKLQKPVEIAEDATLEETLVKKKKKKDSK

B1: PinX1-C (aa254–328), purified (domain or fragment, UniProt Q96BK5 254-328, looked up)
chain: SAPAEEQLRGPCWDQSSKASAQDAGDHVQPPEGRDFTLKPKKRRGKKKLQKPVEIAEDATLEETLVKKKKKKDSK
notes: PinX1 residues 254-328; source: E. coli BL21(DE3)-pLysS, purified (Glutathione Sepharose, gel filtration)
B2: NPM 1–123 (domain or fragment, UniProt P06748 1-123, looked up)
chain: MEDSMDMDMSPLRPQNYLFGCELKADKDYHFKVDNDENEHQLSLRTVSLGAGAKDELHIVEAEAMNYEGSPIKVTLATLKMSVQPTVSLGGFEITPPVVLRLKCGSGPVHISGQHLVAVEEDA
notes: source: E. coli BL21(DE3)-pLysS, purified (HisTrap HP, gel filtration)

What was measured:
[1] = molecular target: T2, nucleophosmin (NPM), purified wild type (UniProt P06748 1-294); test: pull-down; purified NPM (2 mg) immobilised on a 1 ml HiTrap NHS-activated column; 1 mg PinX1 truncation in PBS, 30 min at room temperature; washed with PBS, eluted with PBS with 1.5 M NaCl; SDS-PAGE; details: both partners purified
T2 construct: nucleophosmin, wild type, cloned into pRSETA-HisSumo; HisSumo tag removed by Sumo protease; Truncations end at aa294; also called wild-type NPM; purified NPM; source: E. coli BL21(DE3)-pLysS, purified (HisTrap HP, gel filtration)

[2] = molecular target: T1, PIN2/TERF1-interacting telomerase …; test: pull-down; purified PinX1 (3 mg) immobilised on a 1 ml HiTrap NHS-activated column; 1 mg NPM or NPM variant in PBS, 30 min at room temperature; washed with PBS, eluted with PBS with 1.5 M NaCl; SDS-PAGE; details: both partners purified

| binding result [1] | binding result [2] | Binder |
| --- | --- | --- |
| binds | – | B1 |
| – | binds | B2 |
